# According to patent US20250147051A1, “METHOD FOR DETECTING A TAU PROTEIN IN A SALIVA SAMPLE” (GTINVENT LIMITED, priority 2022, published 2025):
# How the values were obtained:
# plasma tau = assay: 3-step Simoa assays of human plasma (AD/MCI vs healthy control / CU); conditions: label = capture antibody; CA4 with BT2 detector; BT2 or HT7 with S1D12 or S1G2 detectors
# Protocol: Human plasma samples were sourced from the commercial supplier Logical Biological Ltd. Healthy control (HC, n=12) and samples from individuals with a diagnosis of AD or mild cognitive impairment (AD/MCI, n=42) were aliquoted into low bind microfuge tubes and stored at −80° C.
# The Simoa® experiments used for plasma screening utilised a 3-step protocol optimised for use with plasma samples. A standard curve (540 pg/ml−0.7 pg/ml) was created by spiking recombinant hTau40 into Tau 2.0 diluent and triple diluting. Plasma samples were diluted 1:100 and added in duplicate to the Simoa® plate followed by the addition of respective capture beads. Different antibody pairings used for plasma screening is explained in Table 28. In general, the capture antibody coated beads are mixed with diluted plasma samples, added to the plates and incubated for 30 min at 30° C. with shaking. Following the incubation, the plates were washed using the Simoa® plate washer before the addition of 0.2 μg/ml biotinylated detector antibody which was left to incubate as before for 10 min. The plates were then washed again before the addition of SBG and a final 10 min incubation. After the final incubation and wash steps the plates were transferred to the Simoa® reader and plasma tau concentrations generated against a 4-parameter fit curve. […]
# tau protein = assay: Capture ELISA of transgenic mouse brain lysates; conditions: S1D12 mAb capture, label = detection scAb, WT, L1, L66+/- and L66+/+
# Protocol: Mouse brain lysates were prepared from wildtype, Line 1, Line 66+/+ and Line 66+/− (Melis et al., 2015, all surplus from Charles River, part of study R0144). All animals were female, 7-8 months old except Line 66+/+ which were 5 months old. […] The L1 cDNA construct (FIG. 23) contains human tau cDNA coding for amino acid residues 296-390 with a signal sequence and related sequences in a murine Thy-1 expression cassette. For brain lysate preparation, half brains were sectioned into four and the individual sections were homogenised in 400 μl of ice cold RIPA buffer (Cell signalling Technology) containing protease and phosphatase inhibitors. Total protein concentrations for individual samples were established by BCA-assay and each sample was subsequently diluted to 1 mg/ml for future experiments.
# For capture ELISA, 100 μL S1D12 capture mAb was used to coat a nunc 96 well Maxisorp plate at 1 μg/ml and incubated for 1 hour at 37° C. Plate was washed as previously and then blocked for 1 hour at 37° C. in 2% MPBS. Brain homogenate samples (50 ng total protein) from each mouse type were added to the first wells and double diluted across the plate in PBS. These samples were left to incubate at RT for 1 hour. Various detection scAbs encompassing epitopes of interest were then added to the plate at 1 μg/ml and incubated for 1 h at RT. Secondary antibody used was anti-HuCk HRP and the assays were developed as described previously. Using S1D12 mAb capture and two separate scAb detectors, S-1G2 (FIG. 24A) and C-B7 (FIG. 24B), it was possible to differentiate between L1 and L66 samples and the wild type.
# tau [1] = assay: Capture ELISA of transgenic mouse plasma; conditions: Line66 transgenic model; detection scAb with S1D12 mAb capture
# Protocol: Plasma samples from WT, L1, L66+/− and L66+/+ of various ages (1.5-9 months) were taken as described. Mice were terminally anaesthetized using an overdose of sodium pentobarbital and blood was collected through cardiac puncture through a Plastipak syringe pre-rinsed with heparinised saline heparin (10 U/ml) (Heparin sodium salt; Sigma-Aldrich) and transferred into a plastic vial containing lithium heparin anticoagulant (Sarstedt Ltd.) Blood samples, kept on ice for no more than 30 minutes, were centrifuged to obtain plasma at 2000×g for 5 minutes at 6° C. Plasma samples were stored at −20° C.
# For mouse plasma capture ELISA, 100 μL capture mAb was coated to the bottom of a black nunc 96 well ‘maxisorp’ plate at 2.5 μg/ml and incubated for 1 hour at 37° C. After washing and blocking as normal, several known standard solutions were set up in triplicate starting at 20 ng/ml of the desired protein before double diluted in the remaining wells. Mouse samples were added to wells in duplicate with a blank in between each sample group. Line1 plasma was diluted 1:10 before addition to plate to account for its high concentration while other samples were diluted 1:2 to account for potential matrix effects. […] The ELISA was developed using SuperSignal ELISA Femto Substrate (Thermo Scientific) and total luminescence was read on Clariostar Plus plate reader (BMG Labtech). […]
# tau [2] = assay: Western blot of mouse brain homogenates (WT, L66+/+, L1+/+); conditions: 20 μg brain homogenate protein, 5-month-old WT, L1+/+ mice
# Protocol: Protein equivalent to 20 μg from each brain extract was separated using 4-20% bis-tris gels and run in 1×MES buffer. […] A clear band is visible in the lanes containing L66^+/+ samples, but no other bands are detectable (WT or L1^+/+). […] Once again, a band having relative mobility of 65 kDa is visible in the L66 sample with no other reactive bands present.
# This band most likely corresponds to endogenous mouse tau which is of a similar size. In the L66^+/+ samples, a second band running at approximately 68 kDa is also detected. The presence of numerous other bands indicates proteolytic truncation of tau within brain homogenates.
# dGA = dGA (Homo sapiens, UniProt P10636); assay: Biacore X100 SPR binding kinetics of anti-tau scAbs (scAb captured via HuCk), analyte dGA; conditions: lead scAbs
# Sequence of dGA (P10636 614-707): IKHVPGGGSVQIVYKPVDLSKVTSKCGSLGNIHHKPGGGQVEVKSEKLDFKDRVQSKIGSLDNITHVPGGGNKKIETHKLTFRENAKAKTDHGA
# Protocol: Surface plasmon resonance (SPR) is widely regarded as the gold standard for real time measurement of protein-protein interactions such as antibody binding. All SPR experiments were carried out using a Biacore X100 machine and HBS EP+ running buffer (GE Healthcare). A ‘capture’ method was followed for affinity measurements, where an anti-human constant kappa chain (HuCk) antibody was conjugated to the surface of a CM5 sensor chip using an amine coupling kit and scAb molecules were immobilised via their HuCk domain. Amine coupling is a very common approach for immobilising the ligand to the chip surface. The chip surface has a dextran matrix derivatised with carboxyl groups, which after activation with N-hydroxysuccinimide (NHS) and 1-ethyl-3-(3-dimethylaminopropyl) carbodiimide (EDC), form reactive succinimide esters which allows the covalent capturing of the ligand via any available primary amine groups (e.g. Lysine) on the ligand (in this case anti-HuCk antibody). The capture antibody was diluted 1/100 in 10 mM Sodium acetate buffer pH 5.0 and passed over the activated chip surface for a period of at least 420 s. Final ligand immobilisation levels over 12,000 RU were deemed to be satisfactory.
# Following immobilisation, the level of each scAb to be captured was identified using the standard SPR equation with a theoretical RMax of 100 RU. Analyte MW refers to the molecular weight of hT40 or dGA/dGAE molecules, while ligand MW refers to the molecular weight of the scAbs tested. RLis the desired capture level and S refers to the stoichiometric ratio:
# The scAb to be tested was added only to flow cell 2 so that flow cell 1 could act as a control to subtract any interaction with the analyte and the chip surface. Both single and multi-cycle runs were utilised using wizards developed in the Biacore X100 control software which are both accepted methods of kinetic analysis (Karlsson, R., et al. Analyzing a kinetic titration series using affinity biosensors (2006) Analytical Biochemistry 349:136-47). The multi-cycle protocol was as follows-Three start-up cycles composed of an initial capture, to the desired level, of the scAb to be tested was performed followed by a 30 s injection of glycine buffer pH 2.0 after each cycle to regenerate the chip surface. The regeneration step removed any captured scAb whilst leaving the capture antibody intact and able to repeat the capture for the next cycle. Following three start-up cycles increasing concentrations (0.15625 nM-100 nM) of the target to be tested were added to the chip surface after the desired scAb capture. The target was added for a 120 s association period and 420 s dissociation period followed by another regeneration, 30 s injection of glycine buffer pH 2.0 in between each cycle.
# The single cycle kinetics protocol was similar and utilised the same level of scAb capture. Three start-up cycles were used followed by 5 increasing concentrations of the analyte (6.25 nM-100 nM) for an association period of 120 s followed by a dissociation period of 420 s for each concentration. In single cycle kinetics the regeneration step was performed only after the final analyte concentration was added. Binding responses were analysed in Biacore X100 evaluation software and data fitted to a 1:1 binding model to obtain kinetic and affinity characterisation.
# hT40 = assay: Binding ELISA with truncated tau proteins and 13mer peptide libraries for epitope mapping of anti-tau scAbs; set-up: species or system human; conditions: residue numbers of hT40
# Protocol: A series of binding ELISA was performed using various truncated versions of the tau protein and 13mer peptide libraries spanning the entire hT40 molecule for mapping the epitopes of anti-tau scAbs (Full list of protein antigens used is given in Table 14). In general, ELISA plates were coated with 1 μg/ml hT40 or dGA or dGAE or other truncated versions of the protein and in the case of biotinylated peptides, plates were coated with 5 μg/ml Streptavidin followed by 1 μg/ml biotinylated peptide. The plates were blocked with 2% MPBS and scAb samples added at desired starting concentrations and double diluted across the plate. Binding was detected using anti-Human C Kappa HRP conjugated secondary antibody and the resulting immunoreaction was developed and absorbance values measured as described above.
# Selected E specific scAbs and their specific binding to dGAE is shown below (FIG. 8A-E).
# Similarly, dGA binding ‘NS’, ‘S’ and ‘M’ group scAbs were subjected to further antigen binding ELISA using shorter tau proteins and biotinylated 13mer peptides as shown below (FIG. 10A-F) and (FIG. 11A-R).
molecule,measurement,setting,value
"CA4: anti-tau clone, SEQ ID NO: 368 (protein, CA4 amino acid sequence) QVQLQESGPSLVKPSQTLSLTCTVSGFSLTSYSVYWVRQAPGQALEWISIMYASGRVDYNPALKSRLSITRDTSKSQFSLSLSSVTTEDTAVYYCTRGIENWGPGLLVTVSSEGKSSGASGESKVDDDIQVTQSPSSLSASLTERVSITCRTSQSVNNYLSWYQQKPGQAPKLLIYYATRLYTDVPSRFSGSGSGTDYTLTITSLEADDTATYYCLQYDSTPLAFGGGTNVEIK",detection of tau in human plasma,plasma tau,high levels of Core/Proline tau is detected in cognitively unimpaired (CU) samples only
"CB7: anti-tau clone, SEQ ID NO: 364 (protein, CB7 amino acid sequence) scFv: QVQLQESGPSLVKPSQTLSLTCTVSGFSLTNYRVGWVRQAPGKALEWVSNIRSGGTTWYNPALKSRLSITADTSKSQVSLSLSSVTTEDTAVYYCARDSSGDLYAYDYWGPGLLVTVSSEGKSSGASGESKVDDQAVLTQPSSVSRSLGQSVSMTCSGSSSNVGYGNYMAWFQQVPGSAPKLLIYGATSRASGVPDRFSGSRSGNTATLTISSLQAEDEADYYCASYDSTSGGVFGSGTRLTVLG",detection of tau in mouse brain homogenate,tau protein; listed as C-B7 scAb,hT40 tau was specifically detected in L66 samples
same,detection of tau in mouse brain homogenate,tau protein; listed as CB7 scAb,can specifically detect human tau in Line66 homozygous and heterozygous samples
same,cross-reaction with endogenous mouse tau protein,tau [1],does not cross react with endogenous mouse tau protein
same,Western blot reactivity,tau [2],specificity for human tau
"CE2: anti-tau clone referred to as CE2 or E1B8, SEQ ID NO: 366 (protein, CE2/E1B8 amino acid sequence) scFv: QVQLQESGPSLVKPSQTLSLTCTVSGFSLTNYPVGWVRQAPGKALEWIGNIENDGSANYASALKSRLSITRDTSKNQVSLSLSSATTEDTAVYYCGREFGGSDGYTYFVDIDYWGPGLLVTVSSEGKSSGASGESKVDDQAVLTQPSSVSKSLGQSVSITCSGSSSNVGYGNYVSWFQQVPGSAPKILIYGATSRASGVPDRFSGSRSGNTATLTITSLQAEDEADYYCASYDGSSSGVFGSGTRLTVLG",ka,dGA; Table 24,137000 M⁻¹ s⁻¹
same,dissociation rate constant (kd),"dGA; Table 24, dissociation rate",0.00242 s⁻¹
same,Tau proteins/fragments with positive scAb reactivity,hT40,"297-390 (dGA), 297-391 and (dGAE), 313-336"
